The values that follow come from article PMC6365055, “High resolution cryo-EM structure of the helical RNA-bound Hantaan virus nucleocapsid reveals its assembly mechanisms” (eLife, 2019).

Series [1] deals with the molecule itself. In words: cryo-EM structure.
Series [2] concerns the molecule itself. In words: negative stain EM.

B1: Hantaan virus nucleoprotein, recombinant full-length (natural protein)
chain: MATMEELQREINAHEGQLVIARQKVRDAEKQYEKDPDELNKRTLTDREGVAVSIQAKIDELKRQLADRIATGKNLGKEQDPTGVEPGDHLKERSMLSYGNVLDLNHLDIDEPTGQTADWLSIIVYLTSFVVPILLKALYMLTTRGRQTTKDNKGTRIRFKDDSSFEDVNGIRKPKHLYVSLPNAQSSMKAEEITPGRYRTAVCGLYPAQIKARQMISPVMSVIGFLALAKDWSDRIEQWLIEPCKLLPDTAAVSLLGGPATNRDYLRQRQVALGNMETKESKAIRQHAEAAGCSMIEDIESPSSIWVFAGAPDRCPPTCLFIAGIAELGAFFSILQDMRNTIMASKTVGTSEEKLRKKSSFYQSYLRRTQSMGIQLGQRIIVLFMVAWGKEAVDNFHLGDDMDPELRTLAQSLIDVKVKEISNQEPLKL
notes: also called HTNV-NP; NP
As for B1, the binding result in series [1] is reported as “binds”.

B2: NP_(74-429) construct obtained by trypsin limited proteolysis of HTNV-NC (domain or fragment)
chain: NLGKEQDPTGVEPGDHLKERSMLSYGNVLDLNHLDIDEPTGQTADWLSIIVYLTSFVVPILLKALYMLTTRGRQTTKDNKGTRIRFKDDSSFEDVNGIRKPKHLYVSLPNAQSSMKAEEITPGRYRTAVCGLYPAQIKARQMISPVMSVIGFLALAKDWSDRIEQWLIEPCKLLPDTAAVSLLGGPATNRDYLRQRQVALGNMETKESKAIRQHAEAAGCSMIEDIESPSSIWVFAGAPDRCPPTCLFIAGIAELGAFFSILQDMRNTIMASKTVGTSEEKLRKKSSFYQSYLRRTQSMGIQLGQRIIVLFMVAWGKEAVDNFHLGDDMDPELRTLAQSLIDVKVKEISNQEPLKL
notes: also called truncated construct NP_(74-429)
Turning to B2, the binding result in series [2] is “binds”.
